Data published in paper PMC6303191.

Columns and labels:
VRC01 UCA (human) = experiment: SPR
VRC01 UCA = experiment: BLI; conditions: read at the end of association (300 s), read off a plot

Sequence of VRC01 UCA (human) (heavy, as listed by the source, chain 1 of 2): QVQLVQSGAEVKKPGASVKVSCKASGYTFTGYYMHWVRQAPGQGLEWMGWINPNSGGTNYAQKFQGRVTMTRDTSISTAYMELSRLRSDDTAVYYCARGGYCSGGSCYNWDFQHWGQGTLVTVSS
Sequence of VRC01 UCA (human) (light, as listed by the source, chain 2 of 2): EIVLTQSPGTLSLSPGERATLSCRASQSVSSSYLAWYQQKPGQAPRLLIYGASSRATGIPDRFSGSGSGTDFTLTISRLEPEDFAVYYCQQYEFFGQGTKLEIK

For “BG505 SOSIP v4.1-GT1 trimer (from UniProt Q2N0S6 1-860) (complex)”, the Kd (VRC01 UCA (human)) was 3000 nM, the koff (VRC01 UCA (human)) was 0.018 s⁻¹ and the kon (VRC01 UCA (human)) was 8000 M⁻¹ s⁻¹.
Work on TM4ΔV1-3 (24-mer) D268R; E370A yielded a response (VRC01 UCA; VRC01 UCA IgG x 24-mer, parent: est. 0.68) of 0 nm.
Work on TM4ΔV1-3 (heptamer) D368R; E370A yielded a response (VRC01 UCA; VRC01 UCA IgG x heptamer, parent: est. 0.43) of 0 nm.
In the case of TM4ΔV1-3 (monomer) (domain or fragment), the Kd (VRC01 UCA (human)) is reported as over 100000 nM.
